Like-named read-outs stand apart in the source and are kept apart here.
T1: Human CXCR2 (human, UniProt P25025 1-360)
T1 sequence: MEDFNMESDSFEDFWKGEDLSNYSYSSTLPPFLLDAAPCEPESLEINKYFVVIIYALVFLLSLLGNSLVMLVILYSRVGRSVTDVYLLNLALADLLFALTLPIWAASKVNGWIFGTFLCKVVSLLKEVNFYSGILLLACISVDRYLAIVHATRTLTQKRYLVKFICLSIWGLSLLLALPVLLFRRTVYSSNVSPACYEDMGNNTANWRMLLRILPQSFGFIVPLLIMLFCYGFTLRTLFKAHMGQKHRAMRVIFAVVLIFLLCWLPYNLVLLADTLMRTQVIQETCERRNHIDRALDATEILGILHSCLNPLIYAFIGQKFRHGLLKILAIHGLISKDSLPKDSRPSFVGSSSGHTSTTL

T2: Cynomolgus CXCR2 (cynomolgus, UniProt Q28519 3-353 (rhesus entry))
T2 chain: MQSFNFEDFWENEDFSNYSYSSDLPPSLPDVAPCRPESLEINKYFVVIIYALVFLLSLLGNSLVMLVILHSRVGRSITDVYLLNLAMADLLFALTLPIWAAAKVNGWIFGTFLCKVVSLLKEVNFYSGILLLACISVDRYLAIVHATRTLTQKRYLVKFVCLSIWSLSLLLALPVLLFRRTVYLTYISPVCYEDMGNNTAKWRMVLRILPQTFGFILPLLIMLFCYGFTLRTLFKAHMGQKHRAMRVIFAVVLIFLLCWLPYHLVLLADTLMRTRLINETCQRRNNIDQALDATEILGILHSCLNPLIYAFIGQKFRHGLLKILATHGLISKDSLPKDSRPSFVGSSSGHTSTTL

B1: 127D01 (VHH, not shown: small tags and cut ends)
VHH: EVQLVESGGGLVQAGESLRLSCAASGSTFDFKVMGWYRQPPGKQREGVAAIRLSGNMHYAESVKGRFTISKANAKNTVYLQMNSLRPEDTAVYYCKVNIRGQDYWGQGTQVTVSS
B2: CXCR20035 (other, not shown: small tags and cut ends)
chain: EVQLVESGGGLVQAGGSLTLSCAVSGSTFRINTMGWYRRAPGKQRELVAARDRGGYINYVDSVKGRFTVSRDNAKPTMYLQMNSLKPEDTAVYYCHAGTQDRTGRNFDRWGQGTQVTVSSGGGGSGGGGSGGGGSGGGGSGGGGSGGGGSGGGGSEVQLVESGGGLVQPGGSLRLSCVASGRIFSSNAMGWFRQAPGKEREFVAAITWRSGGSAYYADSAKGRFTISRDNAKNTVYLQMNSLKPEDTAVYYCAAGGSSWLSFPPDYWGQGTQVTVSS
B3: CXCR20014 (bispecific antibody, not shown: small tags and cut ends)
chain: EVQLVESGGGLVQPGGSLRLSCVASGSIVRINTMGWYRQTPGKQRELVADITSGGNINYIDAVKGRFTISRDNTKNTVYLQMNSLKPEDTAVYYCNAEIVVLVGVWTQRARTGNYWGQGTQVTVSSGGGGSGGGGSGGGGSGGGGSGGGGSGGGGSGGGGSEVQLVESGGELVQPGGSLRLSCAASGSILTINAMGWYRQAPGKQRELVVRRTRGGSTTYQDSVKGRFTISADIAKKTMYLQMNSLKPEDTAVYYCMLDDRGGVYWGQGTQVTVSS
B4: 097A09 (VHH, not shown: small tags and cut ends)
VHH: EVQLVESGGGLVQPGGSLRLSCVASGSIVRINTMGWYRQTPGKQRELVADITSGGNINYIDAVKGRFTISRDNTKNTVYLQMNSLKPEDTAVYYCNAEIVVLVGVWTQRARTGNYWGQGTQVTVSS
B5: CXCR20020 (bispecific antibody, not shown: small tags and cut ends)
chain: EVQLVESGGGLVQAGESLRLSCAASGSTFDFKVMGWYRQPPGKQREGVAAIRLSGNMHYAESVKGRFTISKANAKNTVYLQMNSLRPEDTAVYYCKVNIRGQDYWGQGTQVTVSSGGGGSGGGGSGGGGSGGGGSGGGGSGGGGSGGGGSEVQLVESGGGLVQAGGSLRLSCAASGRTFSDYAMGWFRQAPGKEREFVAAITWNGGRVFYTASVKGRFTISRDNAKNTMYLQMNSLKPEDTAVYYCAADKDRRTDYLGHPVAYWGQGTQVTVSS
B6: 163E03 (VHH, not shown: small tags and cut ends)
VHH: EVQLVESGGGLVQPGGSLRLSCVASGRIFSSNAMGWFRQAPGKEREFVAAITWRSGGSAYYADSAKGRFTISRDNAKNTVYLQMNSLKPEDTAVYYCAAGGSSWLSFPPDYWGQGTQVTVSS
B7: 54B12 (VHH, not shown: small tags and cut ends)
VHH: EVQLVESGGGLVQAGGSLTLSCAVSGSTFRINTMGWYRRAPGKQRELVAARDRGGYINYVDSVKGRFTVSRDNAKPTMYLQMNSLKPEDTAVYYCHAGTQDRTGRNFDRWGQGTQVTVSS
B8: 2B2 (VHH, not shown: small tags and cut ends)
VHH: EVQLVESGGELVQPGGSLRLSCAASGSILTINAMGWYRQAPGKQRELVVRRTRGGSTTYQDSVKGRFTISADIAKKTMYLQMNSLKPEDTAVYYCMLDDRGGVYWGQGTQVTVSS
B9: 163D02 (VHH, not shown: small tags and cut ends)
VHH: EVQLVESGGGLVQAGGSLRLSCAASGRTFSDYAMGWFRQAPGKEREFVAAITWNGGRVFYTASVKGRFTISRDNAKNTMYLQMNSLKPEDTAVYYCAADKDRRTDYLGHPVAYWGQGTQVTVSS

Legend:
Assay in all cases: cell-based or functional assay
Human CXCR2 [1] = biological target: T1, Human CXCR2
Cynomolgus CXCR2 [2] = biological target: T2, Cynomolgus CXCR2
Human CXCR2 [3] = biological target: T1, Human CXCR2; remark: listed apart in the source
Human CXCR2 [4] = biological target: T1, Human CXCR2; remark: listed apart in the source
Cynomolgus CXCR2 [5] = biological target: T2, Cynomolgus CXCR2
Human CXCR2 [6] = biological target: T1, Human CXCR2; remark: listed apart in the source
Human CXCR2 [7] = biological target: T1, Human CXCR2; remark: listed apart in the source
Cynomolgus CXCR2 [8] = biological target: T2, Cynomolgus CXCR2

Row | Binder | FLIPR IC50, GRO-α induced intracellular calcium release (Human CXCR2 [1]) [nM] | [35S]GTPγS % inhibition max, GRO-α (Human CXCR2 [1]) [%] | [35S]GTPγS accumulation IC50, GRO-α (Human CXCR2 [1]) [nM] | FLIPR IC50, GRO-α induced intracellular calcium release (Cynomolgus CXCR2 [2]) [nM] | Human Chemotaxis IC50 (GROα) (Human CXCR2 [3]) [nM] | HumanWBSC IC50 (rhGROα) (Human CXCR2 [3]) [nM] | Human WBSC IC50 (vs rhGROα) (Human CXCR2 [4]) [nM] | Cynomologus WBSC IC50 (vs rhGROα) (Cynomolgus CXCR2 [5]) [nM] | [35S]GTPγS % inhibition of max, ENA-78 (Human CXCR2 [6]) [%] | [35S]GTPγS % inhibition of max, GRO-α (Human CXCR2 [6]) [%] | [35S]GTPγS % inhibition of max, IL-8 (Human CXCR2 [6]) [%] | [35S]GTPγS accumulation IC50, ENA-78 (Human CXCR2 [6]) [nM] | [35S]GTPγS accumulation IC50, GRO-α (Human CXCR2 [6]) [nM] | [35S]GTPγS accumulation IC50, IL-8 (Human CXCR2 [6]) [nM] | FLIPR IC50, GRO-α induced intracellular calcium release (Human CXCR2 [7]) [nM] | FLIPR IC50, GRO-α induced intracellular calcium release (Cynomolgus CXCR2 [8]) [nM] | Human Chemotaxis IC50 (vs rhGROα) (Human CXCR2 [4]) [nM]
1 | B1 | 21.9 | 66 | 12.5 | 753 | 3.9 | 4.9 | – | – | – | – | – | – | – | – | – | – | –
2 | B2 | – | – | – | – | – | – | 0.24 | 0.43 | 100 | 100 | 100 | 1.17 | 0.844 | 0.717 | 10.2 | 8.72 | –
3 | B3 | – | – | – | – | – | – | 0.445 | 0.16 | 100 | 100 | 100 | 1.66 | 1.38 | 1.13 | 6.84 | 13.7 | 0.16
4 | B4 | 39.9 | 100 | 50.3 | 640 | 4.8 | 11.6 | – | – | – | – | – | – | – | – | – | – | –
5 | B5 | – | – | – | – | – | – | 0.17 | 0.12 | 100 | 100 | 100 | 0.707 | 0.634 | 0.619 | 6.98 | 1.64 | 0.145
6 | B6 | 44.3 | 100 | 64.7 | 158 | 1.3 | 9.4 | – | – | – | – | – | – | – | – | – | – | –
7 | B7 | 153 | 71.8 | 15.4 | 4080 | – | 19.7 | – | – | – | – | – | – | – | – | – | – | –
8 | B8 | 441 | 71.3 | 103 | 3850 | 50 | 29.5 | – | – | – | – | – | – | – | – | – | – | –
9 | B9 | 1.91 | 100 | 53.2 | 37.2 | – | 6.6 | – | – | – | – | – | – | – | – | – | – | –

— US20170101476A1 (Novartis, published 2017)
